Test results: the DeepSol protein solubility set

test: soluble on expression in E. coli; label from the status in PepcDB or PDB records

Sequence	soluble on expression in E. coli
MGRPRYLAYTRQIAMKSWRKAVVGTQATVGDAIAAIESGSIQIALVLDDQNRLLGVVTDGDVRRGLLRGIPLTGLATDIMNRVPVSAPATLSRDDRLHLMRQKSIKQLPLVDEGGHLVVVETLDELLEPRHYANPVLIMAGGLGERLGALTRDVPKPMLNVGGRPLLETIVRNVVQQGFRNIYISVNYKAETIKDYFADGAAFGANIQYVHETERLGTAGALGLFPAPPDLPMIVTNGDILTTINYGALLDFHNGTPAEATMAVREHKVHVPYGVVSTSDGFLQAIREKPTESWFVSAGIYVIGSSVFGHVAPGVSIDMPTVLERVIAGKGRVAVYPIREYWLDIGRLEDFEQAHAEFHEVFPLEHHHHHH	soluble
MIFRKFLNFLKPYKMRTDPIIFVIGCTGTGKSDLGVAIAKKYGGEVISVDSMQFYKGLDIATNKITEEESEGIQHHMMSFLNPSESSSYNVHSFREVTLDLIKKIRARSKIPVIVGGTTYYAESVLYENNLIETNTSDDVDSKSRTSSESSSEDTEEGISNQELWDELKKIDEKSALLLHPNNRYRVQRALQIFRETGIRKSELVEKQKSDETVDLGGRLRFDNSLVIFMDATPEVLEERLDGRVDKMIKLGLKNELIEFYNEHAEYINHSKYGVMQCIGLKEFVPWLNLDPSERDTLNGDKLFKQGCDDVKLHTRQYARRQRRWYRSRLLKRSDGDRKMASTKMLDTSDKYRIISDGMDIVDQWMNGIDLFEDISTDTNPILKGSDANILLNCEICNISMTGKDNWQKHIDGKKHKHHAKQKKLAETRT	not soluble
MWDVKDIEQLSFARGLAIDETNDHQYKLTYQNLLPQSEDSQASGKPEFVNVTSHGKTILEAVSDVSIKDPPVYSDHLKVILLGEKLMRNQNVDQVLNHFIRDDELRRSSYLMAARGNAADVFTKGNPNQQQPMPSEKLIDLTTHSGYNGKIMIPLRIGRASVYSQNGYSYLIQAVKNEKGKAKYDGAGIIKRGSNKLVGFLSADETQTLSWVMGTIQGGVMPTTDKGHPITFEIKKSKTKIKPVIENGKPVFHISVKTKGILTEDQNPNENSFSKSYLHRLENIFEKKLERDVKQVMDKLQHEYKTDPVFLSDHIRIQHPDYWNKVKGHWDEIFSETDFKYDISFKIINFGTVGKLEHHHHHH	soluble
MGSDKIHHHHHHMSGNESVVNYDHFIDKRRVRKAFERAAPLYDQAAVLQREVCDRMLSRLEYIKYMPDVVLDAGSGTGYGTCKLLERYPDASMLAIDIATGMHHQARQRMNSMIPRWRQLFGVGRNQRTSRVRYVAGDIEQLPLEDSCAGLVWSNLALQWCNDLKKTFDEMRRILKNGGLFMFSTFGPDTLKELRQAFRHADDYSHVNRFADMHDIGDMLVHSGFATPVMDMEYITLTYDEVISVMRDLKAIGAHNATGARHRGLTGKNAWQKAIGHYETLRTGGKLPATFEVVYGHAWKPAPRTSILTPETRRHIGLE	not soluble
MAHHHHHHMQFGPVVSEAEIRTVQDGIANGVRSDGRSLTQRRPFTVVTNRGSTTHFEGSSVEVHCDGTTVVAAATPSVVELDIDRGQAPRGSLFVNIDAVPAVVEHYAQSVRNNSARYRQAFLSFLATAIRQTFGAQGVTAEERQQQLGIAEAEIIADEGDDEQREDAFGGRGAAEEKPVEETAEQRVDCCGFPGEQLYIGGGYAFRIDVDAHVLQAHGGSLASIVALAVHAALKTVRLPSVTLHEASAGFSLEVNYSKPYATAVNWSRLPVLSVVHVSPTRHYVVDPTRLEELALPQQLRVAVNSFGQVFHMRFQQLPSRRGNAMRLIRSPREEAGKDNSNDNSERDVDGDDVDDSSRRGFDAGVKGTVGGMNMPDMAAVLHAAVHISQAVIAECDEALAGSSG	not soluble
MGSDKIHHHHHHMHVGIFADGGYEKGMGHVVRMKRLAEGLKQRCLITFYTNQDSEAFLHEEHWQVIVKPELQQHEFILREIKSKKLDLLLFDILGAPAELLKKIKTETDAKIVLFEEKNGKSIQYSDAVINGIYGDIRSRVYVQGNTRIYEGPDYLILHPAFQAAREDYTLKKDCRNILVALGGSDPKQLIFKVLAAADQVPDIKDKNMMFVMGSASPHQEAVRRRIEKKPQYKMIEQTNDMAGLMKQADAAIVAGGISLYEAICIGVPCLVLSQVEHQTATAKTFADQGAALDLGLGELVPDETLIYQMSRIMSSYPLRLSLHKGGRPLVDGKGIIRVTAILQDLYEQEI	not soluble
MGSDKIHHHHHHLNQPLTPQPIKTMTDKRQAILDTALALFVSQGFHGTSTASIAKQAGVATGTLFHHFPSKEALMESLFLTIKQQFADTLLLNTHKGSDLKLNALQLWQSAIDWSLDNPVKQLFFQQYSMSPMIAAKVRDQAMNSILGFISELIKQGQMEGLIAHYPLELMLENCHGQYLAATRFFIDNPHLGTNTRYRDASFELFWKAMQAD	not soluble
MQKKSIYVAYTGGTIGMQRSDNGYIPVSGHLQRQLALMPEFHRPEMPDFTIHEYAPLIDSSDMTPEDWQHIANDIQQNYDLYDGFVILHGTDTMAFTASALSFMLENLAKPVIITGSQIPLAELRSDGQTNLLNALYLAANHPVNEVSLFFNNQLFRGNRTTKAHADGFDAFASPNLSVLLEAGIHIRRQSSVVSPTSNGPLIVHRITPQPIGVVTIYPGISGAVVRNFLLQPVKALILRSYGVGNAPQKAELLDELKNASDRGIVVVNLTQCISGSVNMGGYATGNALAQAGVISGFDMTVEAALTKLHYLLSQSLSPNEIRQLMQQNLRGELTDTQ	soluble
MGHHHHHHSHMFVSDFRKEFYEVVQSQRVLLFVASDVDALCACKILQALFQCDHVQYTLVPVSGWQELETAFLEHKEQFHYFILINCGANVDLLDILQPDEDTIFFVCDTHRPVNVVNVYNDTQIKLLIKQDDDLEVPAYEDIFRDEEED	soluble
IRNVGITFETRPDWAREEHVDEFLRLGGTKVEIGVQSVYDFVLSRMQRGHGVAEIVRANRVLRDSAFKVGFHMMPHLPGADSELDLRGFKKLFDDQRFRPDYLKIYPTLVTEGTPLYRMWKSGEYQALSDEEAAELVADIKAVLPKWVRLQRIQRDIPAHQIFAGVR	not soluble
GMNDRKILVAYFSCSGVTKAVAEKLAAITGADLYEIKPEVPYTEADLDWNDKKSRSSVEMRDALSRPAISGTLFHPEKYEVLFVGFPVWWYIAPTIINTFLESYDFAGKIVVPFATSGGSGIGNCEKNLHKAYPDIVWKDGKLLNGQITRDLVTEWFEKIRL	soluble
MSRRRKANPTKLSENAKKLAKEVENSQEENDCDMLAKPQTPTIIIPGHMDDTPNPAGSPHDASIKSSSSTISDHTSTSATTGISDFPDILAQTEHGCSVLIDGNHLREIINSVDTQDGKQDLLSDVIRQLTSIKERLTNDESPVKDDLKEDPDDMSPMLHAGNFDSEMLLRQHELMQHQQQQMIIANMLKATQSLPLLFNGGLNYEAILNNPVLNATIAGHLPNPLASNISLLQKSISAKLAAAGNMQTVEKVETPLNLSKDTPSPTAIPQSPLSGFRLPYSLGTNYGSDGQLFNNCSPNSSGKSTPGNTSVTSEVATPRPQAKSPNHIKRPMNAFMVWARDERRKILKAYPDMHNSNISKILGSRWKGMSNSEKQPYYEEQSRLSKLHMEQHPDYRYRPRPKRTCVIDGKKVRVNEYKTIMKTKKDLMWGDEPGFSQPSDLQMDLASHVNLLNDLTQHHHQSHLLQTAE	not soluble
GMQLTSENYYSQEANKEYMSVSGYKDFAGTYGKMPCEFYGMEKLNGRWEDEKSTALLVGSYVDSYFEGSLDQFKKDNPEIFTQKGELKANFKQAEEIIARIERDEYFMKYMSGQKQVIMTGELFGAKWKIKMDSYIPGVAIVDLKVMASITDLKWVKDIGYLDFVRYWGYDIQGAVYQEIVRQNTGEKLPFFIAGATKQTEPDIRIIHVTDNYLQEALHMVEMNMPRILRVKNGEVEPDRCELCDCCRHNRVLKKPISIMDLTAGI	soluble
GPGSMPPKKGKKLKKKVKLQVPPQYEEQISKEPVSDPPTSQQSITSLPISVVEAALAVEESPEEDIVTFGAEALNRLLSMRHPQQIAADLTRSLSSLRQRLAQLEMEWLGFESSAVGSTYACRARDQKDKLEHEVRKTEKMTRHLILLGRVLDRIFELRTSVFDTERTAMEAEVEELTKRVEKNDEEIRSCYINRISLLHRYWVWRTLQELGDMTVGRTFAEELARGPRYRSIAIQNRILSDTLERQLEWLQRFLEKEEVFCGRVRQLERFVEEFTDMNDALEEVLTCRVCNLLFEDPVVFWPCGHSFCLQCFDSLSVAPSLFRCPLCGSMGSEGYVHNLLLSESVAKWMFKDACYADVHGALSLVRLHLSKFRRNIISSRMEQLEERLTAERGRELASDTLDDMDIVYRAY	not soluble
MFQLSVQDIHPGQQAGNKEEAIRQVAAALVSAGNVADGYVNGMLAREQQTSTFLGNGIAIPHGTTDTRDQVLKTGVQVFQFPQGVTWGEGQTAYVAIGIAASSDEHLGLLRQLTHVLSDDAVAAQLQSATTAEELRALLMGEKQSEALKLDNETLSLDVAASDLLTLQALNAARLKEVGAVDAAFVSHVINDTPLNLGQGVWLNDSAEGNLRSAVAVSRAANAFTRDEQPVSLLVTVAMADEQPTAVLNRLSKLLLDKKAEHLLKADAATVLALLTSDDAIAEDVLSAEFVVRNEHGLHARPGTMLVNTIKQFSSDITVTNLDGSGKPANGRSLMKVVALGVKKGHRLRFTAQGEDAQQALDAIGEAIAAGLGEGA	not soluble
MIVSFMENYSDALNDIFQSLADPTRRAVILRLGGGEASIGTLAEPFAMALPSFMKHIRQLEEAGLIVTRKQGRVRFCSLEKQRFSMLDGWLSQQRAVWEGRTDRLEQFVMAQQDRMSSKGENDQ	not soluble
EDLDCTPGFQQKVFHINQPAEFIEDQSILNLTFSDCKGNDKLRYEVSSPYFKVNSDGGLVALRNITAVGKTLFVHARTPHAEDMAELVIVGGKDIQGSLQDIFKFARTSPVPRQKRSIVVSPILIPENQRQPFPRDVGKVVDSDRPERSKFRLTGKGVDQEPKGIFRINENTGSVSMTRTLDREVIAVYQLFVETTDVNGKTLEGPVPLEVIVIDQNDNRPIFREGPYIGHVMEGSPTGTTVMRMTAFDADDPATDNALLRYNIRRQTPDKPSPNMFYIDPEKGDIVTVVSPALLDRETLENPKYELIIEAQDMAGLDVGLTGTATATIMIDDKNDHSPKFTKKEFQATVEEGAVGVIVNLTVEDKDDPATGAWRAAYTIINGNPGQSFEIHTNPQTNEGMLSVVKPLDYEISAFHTLLIKVENEDPLVPDVSYGPSSTATVHITVLDVNEGPVFYPDPMMVTRQEDLSVGSVLLTVNATDPDSLQHQTIRYSVYKDPAGWLNINPINGTVDTTAVLDRESTFVDNSVYTALFLAIDSGNPPATGTGTLLITLEDVNDNAPFIYPTVAEVCDDAKNLSVVILGASDKDLHPNTDPFKFEIHKQAVPDKVWKISKINNTHALVSLLQNLNKANYNLPIMVTDSGKPPMTNITDLRVQVCSCRNSKVDCNAAGALRFSLPSVLLLSLFSLACL	soluble
MLTSDPSESTAHLQRTISNLSARNAKLAELLKASRDKLSILQDQLEDLAAPPSTYGTFLEFSGGRETAEVFTAGRHMRLRISPDVEKAELVPGVQVRLGEASQVVEVCDISTTGQLATLVELLADNRGLICDHTGEERVVKLAAALTEGVDKLPKAGDTLLVDPRAGYAFEVIPKTEVSTLA	soluble
AASSAQCDFGGPFQAYKSVNGPGNGGYYLRKTTKPGTPECAYVLVPQNTLSEGQSTSFTYGKLQNGQMIQLTATVTVNGDKIEVTGAGQDLSGTTTVLFSDYRSCDVMRGPDGNYELWVHSSAINLQSYGCCDTKFAQVAGGRPIHHTWQTYCPPLP	soluble
